Results on one molecule are retold here after publication PMC12816604, “Structural basis of double-stranded RNA recognition by the J2 monoclonal antibody”.

Experiment in all cases: BLI; 100 mM KCl; BLI: 25 mM Tris-HCl pH 7.5, 2 mM MgCl2, KCl 100 mM (6-20 bp and mutants), 200 mM (30 bp) or 400 mM (40, 50 bp), 25 C; IgG immobilised on Protein A probes
Details in all cases: protein: recombinant;recombinant; tags: His8 (C-term);; chain copies: 2;2; blunt
For orientation: BLI is a label-free optical method that tracks binding on a fibre tip over time.

The target of data set [1] is J2 IgG light chain Y38F;J2 IgG heavy chain (HC-TEV-His8) (Mus musculus;Mus musculus, UniProt ; ;, Y38F|).
The target of data set [2] is J2 IgG heavy chain (HC-TEV-His8) Y52F;J2 IgG light chain (Mus musculus;Mus musculus, UniProt ; ;, Y52F|).
The target of data set [3] is J2 IgG light chain Y31F;J2 IgG heavy chain (HC-TEV-His8) (Mus musculus;Mus musculus, UniProt ; ;, Y31F|).
In data set [4] the target is J2 IgG heavy chain (HC-TEV-His8) Y54A;J2 IgG light chain (Mus musculus;Mus musculus, UniProt ; ;, Y54A|).
Data set [5] has as its target J2 IgG light chain Y31A;J2 IgG heavy chain (HC-TEV-His8) (Mus musculus;Mus musculus, UniProt ; ;, Y31A|).
Data set [6] has as its target J2 IgG heavy chain (HC-TEV-His8) A30P;J2 IgG light chain (Mus musculus;Mus musculus, UniProt ; ;, A30P|).
The target in data set [7] is J2 IgG heavy chain (HC-TEV-His8) Y54F;J2 IgG light chain (Mus musculus;Mus musculus, UniProt ; ;, Y54F|).
Data set [8] deals with J2 IgG heavy chain (HC-TEV-His8);J2 IgG light chain (Mus musculus;Mus musculus, UniProt ; ;, |).
The target in data set [9] is J2 IgG heavy chain (HC-TEV-His8) Y50F;J2 IgG light chain (Mus musculus;Mus musculus, UniProt ; ;, Y50F|).

In general, Kd refers to the equilibrium constant for the complex coming apart.

Chain of J2 IgG heavy chain (HC-TEV-His8) Y52F;J2 IgG light chain (chain, as listed by the source Y52F| | Y52F Y52F, chain 1 of 2): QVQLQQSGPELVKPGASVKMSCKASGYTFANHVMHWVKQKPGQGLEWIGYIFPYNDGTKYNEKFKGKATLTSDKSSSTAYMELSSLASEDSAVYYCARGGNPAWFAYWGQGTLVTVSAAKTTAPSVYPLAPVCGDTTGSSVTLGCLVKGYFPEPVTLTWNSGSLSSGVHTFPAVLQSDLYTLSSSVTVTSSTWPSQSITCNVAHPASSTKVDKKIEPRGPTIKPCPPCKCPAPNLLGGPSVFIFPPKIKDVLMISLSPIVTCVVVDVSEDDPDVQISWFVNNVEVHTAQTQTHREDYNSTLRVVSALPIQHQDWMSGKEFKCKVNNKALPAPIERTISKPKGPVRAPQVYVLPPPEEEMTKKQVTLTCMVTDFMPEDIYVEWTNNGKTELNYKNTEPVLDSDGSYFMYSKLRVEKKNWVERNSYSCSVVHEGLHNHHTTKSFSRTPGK
Chain of J2 IgG heavy chain (HC-TEV-His8) Y52F;J2 IgG light chain (chain, as listed by the source Y52F| | Y52F Y52F, chain 2 of 2): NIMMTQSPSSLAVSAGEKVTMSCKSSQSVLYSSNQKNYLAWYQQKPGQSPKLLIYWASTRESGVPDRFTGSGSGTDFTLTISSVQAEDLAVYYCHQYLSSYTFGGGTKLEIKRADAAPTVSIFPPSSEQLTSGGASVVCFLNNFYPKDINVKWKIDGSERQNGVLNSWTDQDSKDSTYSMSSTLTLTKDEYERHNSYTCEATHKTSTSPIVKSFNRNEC
Chain of J2 IgG light chain Y31F;J2 IgG heavy chain (HC-TEV-His8) (chain, as listed by the source Y31F| | Y31F Y31F, chain 1 of 2): as the sequence (chain, as listed by the source Y52F| | Y52F Y52F, chain 2 of 2) above, with Y31F counted along it
Chain of J2 IgG light chain Y31F;J2 IgG heavy chain (HC-TEV-His8) (chain, as listed by the source Y31F| | Y31F Y31F, chain 2 of 2): as the sequence (chain, as listed by the source Y52F| | Y52F Y52F, chain 1 of 2) above, with F52Y counted along it
Chain of J2 IgG heavy chain (HC-TEV-His8) Y54A;J2 IgG light chain (chain, as listed by the source Y54A| | Y54A Y54A, chain 1 of 2): as the sequence (chain, as listed by the source Y52F| | Y52F Y52F, chain 1 of 2) above, with F52Y, Y54A counted along it
Chain of J2 IgG heavy chain (HC-TEV-His8) Y54A;J2 IgG light chain (chain, as listed by the source Y54A| | Y54A Y54A, chain 2 of 2): as the sequence (chain, as listed by the source Y52F| | Y52F Y52F, chain 2 of 2) above
Chain of J2 IgG heavy chain (HC-TEV-His8) Y54F;J2 IgG light chain (chain, as listed by the source Y54F| | Y54F Y54F, chain 1 of 2): as the sequence (chain, as listed by the source Y52F| | Y52F Y52F, chain 1 of 2) above, with F52Y, Y54F counted along it
Chain of J2 IgG heavy chain (HC-TEV-His8) Y54F;J2 IgG light chain (chain, as listed by the source Y54F| | Y54F Y54F, chain 2 of 2): as the sequence (chain, as listed by the source Y52F| | Y52F Y52F, chain 2 of 2) above
Chain of J2 IgG light chain Y38F;J2 IgG heavy chain (HC-TEV-His8) (chain, as listed by the source Y38F| | Y38F Y38F, chain 1 of 2): as the sequence (chain, as listed by the source Y52F| | Y52F Y52F, chain 2 of 2) above, with Y38F counted along it
Chain of J2 IgG light chain Y38F;J2 IgG heavy chain (HC-TEV-His8) (chain, as listed by the source Y38F| | Y38F Y38F, chain 2 of 2): as the sequence (chain, as listed by the source Y52F| | Y52F Y52F, chain 1 of 2) above, with F52Y counted along it
Chain of J2 IgG heavy chain (HC-TEV-His8);J2 IgG light chain (chain, as listed by the source |, chain 1 of 2): as the sequence (chain, as listed by the source Y52F| | Y52F Y52F, chain 1 of 2) above, with F52Y counted along it
Chain of J2 IgG heavy chain (HC-TEV-His8);J2 IgG light chain (chain, as listed by the source |, chain 2 of 2): as the sequence (chain, as listed by the source Y52F| | Y52F Y52F, chain 2 of 2) above
Chain of J2 IgG heavy chain (HC-TEV-His8) Y50F;J2 IgG light chain (chain, as listed by the source Y50F| | Y50F Y50F, chain 1 of 2): as the sequence (chain, as listed by the source Y52F| | Y52F Y52F, chain 1 of 2) above, with Y50F, F52Y counted along it
Chain of J2 IgG heavy chain (HC-TEV-His8) Y50F;J2 IgG light chain (chain, as listed by the source Y50F| | Y50F Y50F, chain 2 of 2): as the sequence (chain, as listed by the source Y52F| | Y52F Y52F, chain 2 of 2) above
Chain of J2 IgG light chain Y31A;J2 IgG heavy chain (HC-TEV-His8) (chain, as listed by the source Y31A| | Y31A Y31A, chain 1 of 2): as the sequence (chain, as listed by the source Y52F| | Y52F Y52F, chain 2 of 2) above, with Y31A counted along it
Chain of J2 IgG light chain Y31A;J2 IgG heavy chain (HC-TEV-His8) (chain, as listed by the source Y31A| | Y31A Y31A, chain 2 of 2): as the sequence (chain, as listed by the source Y52F| | Y52F Y52F, chain 1 of 2) above, with F52Y counted along it
Chain of J2 IgG heavy chain (HC-TEV-His8) A30P;J2 IgG light chain (chain, as listed by the source A30P| | A30P A30P, chain 1 of 2): as the sequence (chain, as listed by the source Y52F| | Y52F Y52F, chain 1 of 2) above, with A30P, F52Y counted along it
Chain of J2 IgG heavy chain (HC-TEV-His8) A30P;J2 IgG light chain (chain, as listed by the source A30P| | A30P A30P, chain 2 of 2): as the sequence (chain, as listed by the source Y52F| | Y52F Y52F, chain 2 of 2) above

B1: 20-bp dsRNA (dsRNA)
RNA 1: GUUGUAAAGAAGGUCAAUAU
RNA 2: AUAUUGACCUUCUUUACAAC
As to B1, the equilibrium dissociation constant (Kd) in data set [1] came to 0.15 ± 0.02 µM; in data set [2], 0.22 µM; in data set [3] it was 0.36 ± 0.06 µM; in [4], 0.3 ± 0.03 µM; in data set [5], 0.94 ± 0.56 µM; in data set [6], 0.12 ± 0.02 µM. Also, the Kd in data set [7] worked out at 0.71 ± 0.17 µM; in data set [8], 0.12 ± 0.01 µM; in data set [9], 0.43 ± 0.04 µM.
